Assay [1] addresses biotinylated 4-heptad RNA polymerase II CTD peptide, Ser5 phosphorylated on all heptads.
Assay [2] concerns the target biotinylated 4-heptad RNA polymerase II CTD peptide, Ser2 phosphorylated on all heptads. Kind of assay: pull-down on streptavidin-coupled Dynabeads, SDS-PAGE stained with Coomassie Blue, band quantification. The settings on record: biotinylated peptides of four CTD heptads; triplicate; parent: est. 1.0; read off a plot.
The target of assay [3] is biotinylated 4-heptad RNA polymerase II CTD peptide, Ser5 phosphorylated on all heptads. The description is as above. Conditions: biotinylated peptides of four CTD heptads; triplicate; parent: est. 1.0; read off a plot.
In assay [4] the target is RNA polymerase II CTD CTD (UniProt P24928). The settings on record: cited from earlier work.
Sequence of RNA polymerase II CTD CTD (P24928 1593-1970 A1835T): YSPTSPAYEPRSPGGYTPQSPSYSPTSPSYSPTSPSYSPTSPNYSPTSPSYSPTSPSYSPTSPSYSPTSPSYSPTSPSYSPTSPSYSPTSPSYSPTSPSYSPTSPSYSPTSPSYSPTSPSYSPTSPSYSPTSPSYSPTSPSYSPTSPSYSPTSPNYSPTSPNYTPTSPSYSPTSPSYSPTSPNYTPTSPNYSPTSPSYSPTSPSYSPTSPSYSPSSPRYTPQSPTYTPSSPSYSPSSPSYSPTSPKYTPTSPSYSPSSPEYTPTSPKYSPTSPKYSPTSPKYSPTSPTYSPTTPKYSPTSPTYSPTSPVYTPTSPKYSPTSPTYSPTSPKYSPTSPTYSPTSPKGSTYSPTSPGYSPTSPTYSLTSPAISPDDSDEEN

Sequence of human capping enzyme (CE/RNGTT) GTase with the disordered flanking regions (211–597), wild-type, O60942 R330A; K331A; R386A; R358A; K403A; R411A (O60942 211-597 R330A/K331A/R358A/R386A/K403A/R411A): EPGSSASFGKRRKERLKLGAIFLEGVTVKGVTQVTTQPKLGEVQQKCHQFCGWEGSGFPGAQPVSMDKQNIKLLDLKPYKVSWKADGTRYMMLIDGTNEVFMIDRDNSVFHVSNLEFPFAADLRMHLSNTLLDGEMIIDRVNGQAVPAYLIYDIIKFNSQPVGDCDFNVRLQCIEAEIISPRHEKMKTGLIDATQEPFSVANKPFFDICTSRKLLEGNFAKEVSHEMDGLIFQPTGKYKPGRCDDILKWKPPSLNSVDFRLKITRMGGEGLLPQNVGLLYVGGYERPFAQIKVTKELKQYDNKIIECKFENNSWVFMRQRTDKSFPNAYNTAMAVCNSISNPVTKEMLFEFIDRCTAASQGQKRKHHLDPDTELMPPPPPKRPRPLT
Sequence of human capping enzyme (CE/RNGTT) GTase with the disordered flanking regions (211–597), wild-type, O60942 R330A; K331A; R386A (O60942 211-597 R330A/K331A/R386A): as the sequence (O60942 211-597 R330A/K331A/R358A/R386A/K403A/R411A) above, with A148R, A193K, A201R counted along it
Sequence of human capping enzyme (CE/RNGTT) GTase with the disordered flanking regions (211–597), wild-type, O60942 R358A; K403A; R411A (O60942 211-597 R358A/K403A/R411A): as the sequence (O60942 211-597 R330A/K331A/R358A/R386A/K403A/R411A) above, with A120R, A121K, A176R counted along it
Sequence of mRNA capping enzyme GTase (O60942 229-597): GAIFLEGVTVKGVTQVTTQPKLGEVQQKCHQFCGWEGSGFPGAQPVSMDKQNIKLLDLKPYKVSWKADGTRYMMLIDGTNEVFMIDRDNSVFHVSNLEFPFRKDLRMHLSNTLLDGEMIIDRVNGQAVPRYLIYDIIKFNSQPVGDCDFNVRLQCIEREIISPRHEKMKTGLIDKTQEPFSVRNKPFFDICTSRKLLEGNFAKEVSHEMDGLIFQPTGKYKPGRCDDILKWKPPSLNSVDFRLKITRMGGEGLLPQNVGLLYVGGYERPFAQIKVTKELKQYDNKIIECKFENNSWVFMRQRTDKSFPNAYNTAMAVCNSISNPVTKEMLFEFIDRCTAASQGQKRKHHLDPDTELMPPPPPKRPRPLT
Sequence of human capping enzyme (CE/RNGTT) GTase with the disordered flanking regions (211–597), wild-type (O60942 211-597): as the sequence (O60942 211-597 R330A/K331A/R358A/R386A/K403A/R411A) above, with A120R, A121K, A148R, A176R, A193K, A201R counted along it

On to “human CE GTase (211–597) ΔCDS1 (R330A/K331A/R386A) (from UniProt O60942 211-597) (domain or fragment)”, for which the guanylyltransferase activity (32P-GMP bound to the GTase), 0-10 μM 4-heptad pSer5 CTD peptide, relative to basal activity in assay [1] is 1.4 fold.
“human capping enzyme (CE/RNGTT) GTase with the disordered flanking regions (211–597), wild-type (from UniProt O60942 211-597) (domain or fragment)”: the guanylyltransferase activity (32P-GMP bound to the GTase), 0-10 μM 4-heptad pSer5 CTD peptide, relative to basal WT activity in assay [1] worked out at 2.2 fold.
For the substance “human capping enzyme (CE/RNGTT) GTase with the disordered flanking regions (211–597), wild-type, O60942 R330A; K331A; R386A”, the ratio to parent in assay [2] was 0.2; in assay [3], 0.43.
For the substance “human capping enzyme (CE/RNGTT) GTase with the disordered flanking regions (211–597), wild-type, O60942 R330A; K331A; R386A; R358A; K403A; R411A”, the figures for the ratio to parent in assay [2] and in assay [3] were 0.035 and 0.03, respectively.
Taken in the same sequence, the figures for “human capping enzyme (CE/RNGTT) GTase with the disordered flanking regions (211–597), wild-type, O60942 R358A; K403A; R411A” were 0.12 and 0.18.
On to “mRNA capping enzyme GTase (from UniProt O60942)”, for which the dissociation constant (Kd) in assay [4] was 139 µM.

One may read the Kd as the constant that tells how readily two partners part at equilibrium.

Source of the values: article PMC8034621.
